According to article PMC8409903:

Biological target: T1, mixed lineage kinase domain-like pseudokinase (MLKL) (human (endogenous in platelets)), Q8NB16
T1 chain: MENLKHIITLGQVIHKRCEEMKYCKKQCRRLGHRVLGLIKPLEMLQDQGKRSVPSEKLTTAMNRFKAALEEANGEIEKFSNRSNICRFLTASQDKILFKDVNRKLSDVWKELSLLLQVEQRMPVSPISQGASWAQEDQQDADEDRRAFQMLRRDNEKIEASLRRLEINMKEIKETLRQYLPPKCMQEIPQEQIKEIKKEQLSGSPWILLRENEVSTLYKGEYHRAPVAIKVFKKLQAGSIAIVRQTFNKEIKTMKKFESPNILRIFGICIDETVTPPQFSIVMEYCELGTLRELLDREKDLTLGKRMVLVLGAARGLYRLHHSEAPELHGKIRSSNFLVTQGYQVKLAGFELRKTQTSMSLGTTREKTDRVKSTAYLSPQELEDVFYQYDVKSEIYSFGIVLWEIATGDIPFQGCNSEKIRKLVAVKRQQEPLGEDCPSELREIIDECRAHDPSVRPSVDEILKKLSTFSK
Experiment: western blot of platelets
Conditions: remark: other sources report otherwise

B1: mixed lineage kinase domain-like pseudokinase (MLKL), Q8NB16 1-471 (natural protein)
chain: MENLKHIITLGQVIHKRCEEMKYCKKQCRRLGHRVLGLIKPLEMLQDQGKRSVPSEKLTTAMNRFKAALEEANGEIEKFSNRSNICRFLTASQDKILFKDVNRKLSDVWKELSLLLQVEQRMPVSPISQGASWAQEDQQDADEDRRAFQMLRRDNEKIEASLRRLEINMKEIKETLRQYLPPKCMQEIPQEQIKEIKKEQLSGSPWILLRENEVSTLYKGEYHRAPVAIKVFKKLQAGSIAIVRQTFNKEIKTMKKFESPNILRIFGICIDETVTPPQFSIVMEYCELGTLRELLDREKDLTLGKRMVLVLGAARGLYRLHHSEAPELHGKIRSSNFLVTQGYQVKLAGFELRKTQTSMSLGTTREKTDRVKSTAYLSPQELEDVFYQYDVKSEIYSFGIVLWEIATGDIPFQGCNSEKIRKLVAVKRQQEPLGEDCPSELREIIDECRAHDPSVRPSVDEILKKLSTFSK
  stoichiometry N: 8
